Patent publication US20240343803A1 (SHANDONG SIMCERE BIOPHARMACEUTICAL, published 2024)

T1: human PVRIG-his (AcroBiosystems, Cat NO. PVG-H52H4) (human, UniProt Q6DKI7 41-171, limits assumed)
T1 construct: Bought reagent; also called human PVRIG protein
T1 sequence (looked up): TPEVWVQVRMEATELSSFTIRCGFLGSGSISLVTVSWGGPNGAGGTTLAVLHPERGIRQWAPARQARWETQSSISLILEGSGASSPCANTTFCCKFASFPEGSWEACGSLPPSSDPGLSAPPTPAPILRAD

T2: cynomolgus monkey PVRIG (Novoprotein, Cat NO. C09B) (cynomolgus monkey, UniProt A0A2K5WVV8 41-171)
T2 construct: Bought reagent; also called cynomolgus monkey PVRIG protein
T2 sequence: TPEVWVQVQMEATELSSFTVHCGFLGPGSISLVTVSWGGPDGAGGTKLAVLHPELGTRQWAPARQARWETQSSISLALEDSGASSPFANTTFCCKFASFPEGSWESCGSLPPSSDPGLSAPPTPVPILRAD

T3: human PVRIG on FlpinCHO-PVRIG cells (human, UniProt Q6DKI7 41-326)
T3 construct: whole, on cells
T3 sequence (looked up): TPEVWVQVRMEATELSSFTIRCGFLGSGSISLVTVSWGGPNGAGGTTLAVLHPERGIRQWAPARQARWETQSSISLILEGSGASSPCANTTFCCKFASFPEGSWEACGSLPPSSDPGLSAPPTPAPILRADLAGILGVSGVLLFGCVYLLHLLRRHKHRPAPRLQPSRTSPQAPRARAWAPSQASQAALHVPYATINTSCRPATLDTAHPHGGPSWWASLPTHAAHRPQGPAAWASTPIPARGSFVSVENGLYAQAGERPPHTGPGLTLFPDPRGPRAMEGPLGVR

T4: cynomolgus monkey PVRIG on FlpinCHO-cyno PVRIG cells (cynomolgus monkey, UniProt A0A2K5WVV8 41-322)
T4 construct: whole, on cells
T4 sequence: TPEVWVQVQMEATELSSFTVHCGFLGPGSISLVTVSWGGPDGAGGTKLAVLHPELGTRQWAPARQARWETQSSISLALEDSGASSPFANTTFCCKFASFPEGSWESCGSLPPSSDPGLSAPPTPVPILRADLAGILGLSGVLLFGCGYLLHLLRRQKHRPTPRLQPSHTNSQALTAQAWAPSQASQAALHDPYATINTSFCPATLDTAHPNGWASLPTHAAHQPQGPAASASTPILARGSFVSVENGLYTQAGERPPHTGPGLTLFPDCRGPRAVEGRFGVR

B1: PVRIG-A118 (Fc fusion)
chain: QVQLVESGGGLVQAGGSLRLSCAASETYFDLYVMGWYRQAPGKDRELVATITYTGSIKIVDSVKDRFTISRGDAKNTVSLQMSSLKPEDTAVYFCNADPSGLGRKVYWGQGTQVTVSS
notes: Alpaca VHH joined to human IgG1 Fc (VHH-hinge-CH2-CH3); not shown: human IgG1 hinge-CH2-CH3
B2: PVRIG-A104 (Fc fusion)
chain: EVQVVESGGGLVQAGGSLRLSCAASGRTRSMYVMGWFRQAPGKEREFVGRIKWSGDTTYTSYADFVKGRFTLYGNQARNTVYLQMNSLKPEDTAVYYCYRRSWTNTKLYWGKGIQVTVSS
notes: as for B1
B3: PVRIG-A50 (Fc fusion)
chain: EVQLVESGGGLVQPGGSLRLSCAASGFTFSYYDMSWVRQAPGKGLEWVSTINSNGGRTSYVDSVKGRFTISRDNTKNTLYLQMNSLKPEDTAVYYCVEGDPHNFGLENLSLRDFGSWGQGTQVTVSS
notes: as for B1
B4: PVRIG-A117 (Fc fusion)
chain: EVQVVESGGGLVQAGGSLRLSCTASEHIYDLYIMGWYRQAPGKDRELVATITYTGSIYIADSVKDRFTISRGNAKNTVSLQMSGLKPEDTAVYYCNADPSGLGRKLYWGQGTQVTVSS
notes: as for B1
B5: PVRIG-A75 (Fc fusion)
chain: QLQLVESGGGLVQSGGSLRLSCAASGRTRSMYVMGWFRQAPGKEREFVGRIKWSGDTTYTSYADFVKGRFTLYGNQARNTVYLQMNSLKPEDTAVYSCAASKFPVSGVPEHYDYWGQGTQVTVSS
notes: as for B1
B6: PVRIG-A60 (Fc fusion)
chain: QVQLVESGGGLVQSGGSLRLSCAASGRTRSMYVMGWFRQAPGKEREFVGRIKWSGDTTYTSYADFVKGRFTLYGNQARNTVYLQMNSLKPEDAAVYYCNLRRLDGVNYWGKGTLVTVSS
notes: as for B1
B7: PVRIG-A105 (Fc fusion)
chain: EVQLVESGGGLVQAGGSLRLSCAASGRTFDRHTMTWFRQAPGKEREFVATASRIPGDTYYSHSVKGRFTISRDNAKNTVYLQLNNLKPEDTAVYYCAATSAYCSEVDCYEKGSWYDNWGQGIQVTVSS
notes: as for B1
B8: PVRIG-A43 (Fc fusion)
chain: QVQLVESGGGLVQSGGSLRLSCAASGRTRSMYVMGWFRQAPGKEREFVGRIKWSGDTTYTSYADFVKGRFTLYGNQARNTVYLQMNSLKVEDTAVYYCAGRVVPLPSRQRDRYDYWGQGTQVTVSS
notes: as for B1
B9: PVRIG-A113 (Fc fusion)
chain: QLQLVESGGGLVQSGGSLRLSCAASGRTRSMYVMGWFRQAPGKEREFVGRIKWSGDTTYTSYADFVKGRFTLYGNQARNTVYLQMNSLKPEDTAVYYCAALPSDYDYRAASYGVDYWGKGTLVTVSS
notes: as for B1
B10: PVRIG-A30 (Fc fusion)
chain: QVQLVESGGGLVQPGGSLRLSCAASGRTDSMNVMGWFRRAPGKEREFVARIKWNGDTTYTAYADFLKGRFTLYGAVARNRVYLQMNSLQPEDTAVYYCAAGEVSGSSYSPDYGMHYWGKGTLVTVSS
notes: as for B1
B11: PVRIG-A15 (Fc fusion)
chain: QVQLVESGGGLVQAGGSLRLSCVASGRTFSANTMAWFRQAPGKEREFVAYTRWTDDNTDYASYADFVKGRFTAFRDNTRNTMYLQMNRLRPEDTAVYYCAAATTRGTYYSAGDYNSWGQGTQVTVSS
notes: as for B1
B12: PVRIG-A35 (Fc fusion)
chain: EVQVVESGGGLVQSGGSLRLSCAASGRTRSMYVMGWFRQAPGKEREFVGRIKWSGDTTYTSYADFVKGRFTLYGNQARNTVYLQMNSLKPEDTAVYYCNGRSRFNVINAWGTGTLVTVAS
notes: as for B1

Key:
[1] = target: T1, human PVRIG-his (AcroBiosystems, Cat …); assay: ELISA, coated human PVRIG-his
Experimental: (§1) The ELISA plate was pre-coated with 100 μL/well of 0.5 μg/mL human PVRIG-his (AcroBiosystems, Cat NO. PVG-H52H4) or cynomolgus monkey PVRIG (Novoprotein, Cat NO. C09B). […] A HRP substrate, TMB (Thermo, Cat NO. 34029) was added into wells after washing the plate again for color development. After adding a termination solution to terminate the reaction, the absorbance value was read by a microplate reader (MD i3×). An antibody binding curve was drawn with concentration of antibodies as the abscissa and the corresponding OD value as the ordinate. The EC50 value was calculated by using a Four Parameter Logistic Fit (GraphPadPrism9). The smaller the EC50 value, the stronger the ability of the antibodies binds to human or cynomolgus monkey PVRIG. The positive control antibodies are COM701-hIgG1 (Patent No.:US20180244774A1), COM701-hIgG4 (patent No.: US20180244774A1) and SRF813-hIgG1 (Patent No.:US20200040081A1); and the negative control antibodies are anti-HA HcAb-hIgG1 (Chengdu NB Biolab, Cat NO. NBR022), anti-CD38 HcAb-hIgG1 (in-house) and anti-Fluorescein-hIgG1 (in house).

[2] = target: T2, cynomolgus monkey PVRIG (Novoprotein, …); assay: ELISA, coated cynomolgus monkey PVRIG
Experimental: as §1

[3] = target: T3, human PVRIG on FlpinCHO-PVRIG cells; assay: FACS, FlpinCHO-PVRIG cells; AUC of MFI curve relative to COM701-hIgG1
Experimental: (§2) The Ham's F12 (Gibico, 21127-022) complete medium containing 10% FBS was then added to terminate the digestion and acquire cell suspension. After counting with a cell counter (Beckman Coulter, Vi-CELL), an appropriate amount of cell suspension was centrifuged at 350×g to remove the supernatant, washed twice with PBS, stained with Zombie violet (Biolegend, 423114) and incubated at room temperature for 20 minutes. After incubation, the cells were added with staining buffer (2% FBS+PBS) to stop staining, centrifuged at 350×g to remove the supernatant, washed twice and resuspended with staining buffer to a density of 2×10⁶ cells/mL. The cells were plated into a 96-well plate (50 μL of cell suspension per well) for further use. The antibodies were diluted from the highest concentration of 46 nM (two-fold concentration) with staining buffer by 3.3-fold serial dilution. The diluted antibodies were added to the well containing 50 μL of cell suspension. The plate was placed on a microplate shaker at 400 rpm for 1 minute to fully mix the antibodies and cells, and then incubated at 4° C. for 30 minutes. After the incubation, the cells were washed twice with staining buffer (200 μL per well) and centrifuged at 350×g for 5 minutes to discard the supernatant. The PE goat anti-human IgG Fc antibody (ebioscience, 12-4998-82) was diluted 250 times with staining buffer, added into the washed wells (100 μL per well), mixed well, and stained at 4° C. for 30 minutes. After staining, the cells were washed twice with staining buffer, finally resuspended with 200 μL staining buffer and analyzed by flow cytometry (BD, Canto II). The stronger the signal, the stronger the ability of the antibodies binds to PVRIG. An antibody binding curve was drawn with concentration of antibodies as the abscissa and the corresponding Mean Fluorescence Intensity (MFI) as the ordinate. The AUC value of the curve was calculated by using a Four Parameter Logistic Fit (GraphPadPrism9). The stronger the AUC value, the stronger the ability of the antibodies binds to FlpinCHO-PVRIG and FlpinCHO-cyno PVRIG. […] The binding activity of the antibodies was normalized to the positive control COM701-hIgG1 and SRF813-hIgG1.

[4] = target: T3, human PVRIG on FlpinCHO-PVRIG cells; assay: FACS, FlpinCHO-PVRIG cells; AUC of MFI curve relative to SRF813-hIgG1
Experimental: as §2

[5] = target: T4, cynomolgus monkey PVRIG on …; assay: FACS, FlpinCHO-cyno PVRIG cells; AUC of MFI curve relative to COM701-hIgG1
Experimental: as §2

[6] = target: T4, cynomolgus monkey PVRIG on …; assay: FACS, FlpinCHO-cyno PVRIG cells; AUC of MFI curve relative to SRF813-hIgG1
Experimental: as §2

Binder	EC50 [1] [nM]	EC50 [2] [nM]	% AUC to COM701-hIgG1 [3] [%]	% AUC to SRF813-hIgG1 [4] [%]	% AUC to COM701-hIgG1 [5] [%]	% AUC to SRF813-hIgG1 [6] [%]
B1	0.0513	0.0341	153	232	66.4	80.4
B2	0.0659	0.0353	18.1	23.9	18.4	23.9
B3	0.196	0.0534	89.5	115	59.3	69.7
B4	0.0528	0.0418	133	181	128	174
B5	0.0621	0.0288	50.6	54.5	47.6	62.4
B6	0.0557	0.0343	63.3	68.6	63.4	82.9
B7	0.0571	0.0192	123	162	122	157
B8	0.0537	0.036	165	181	19.6	25.7
B9	0.092	0.0443	42.4	57.4	38.6	52.7
B10	0.255	0.093	29.3	34.4	28.7	33.8
B11	0.208	0.129	36.3	42.7	24.8	29.1
B12	0.0543	0.0288	122	134	19.3	25.3
